Positions count from the first letter of the chain named. Names may count otherwise.
B1: VEGF-C ΔNΔCHis (ligand)
chain: TEETIKFAAAHYNTEILKSIDNEWRKTQCMPREVCIDVGKEFGVATNTFFKPPCVSVYRCGGCCNSEGLQCMNTSTSYLSKTLFEITVPLSQGPKPVTISFANHTSCRCMSKLDVYRQVHSIIHHHHHH
notes: the yeast protein was iodinated as tracer; also called VEGF-C ΔCΔNHis; recombinantly-matured VEGF-C
B2: VEGF-CΔNΔCHis C156S (ligand)
chain: B1 chain with C54S
notes: also called VEGF-CΔNΔCH is R156S (as printed once); VEGF-C ΔNΔC156S
B3: VEGF-CΔNΔCHis C156,165S (ligand)
chain: B1 chain with C54S, C63S
notes: also called C156,165S form
B4: VEGF-CΔNΔCHis C165S (ligand)
chain: B1 chain with C63S
notes: also called C165S form
B5: VEGF-C R226,227S (ligand)
chain: FESGLDLSDAEPDAGEATAYASKDLEEQLRSVSSVDELMTVLYPEYWKMYKCQLRKGGWQHNREQANLNSRTEETIKFAAAHYNTEILKSIDNEWRKTQCMPREVCIDVGKEFGVATNTFFKPPCVSVYRCGGCCNSEGLQCMNTSTSYLSKTLFEITVPLSQGPKPVTISFANHTSCRCMSKLDVYRQVHSIISSSLPATLPQCQAANKTCPTNYMWNNHICRCLAQEDFMFSSDAGDDSTDGFHDICGPNKELDEETCQCVCRAGLRPASCGPHKELDRNSCQCVCKNKLFPSQCGANREFDENTCQCVCKRTCPRNQPLNPGKCACECTESPQKCLLKGKKFHHQTCSCYRRPCTNRQKACEPGFSYSEEVCRCVPSYWKRPQMS
notes: The C-terminal cleavage site is destroyed; N-terminal processing may still occur; also called non-processed VEGF-C R226,227S
B6: Flt4 ligand of about 23 kD from PC-3 cell conditioned medium (naturally processed VEGF-C) (ligand)
chain: TEETIKFAAAHYNTEILKSIDNEWRKTQCMPREVCIDVGKEFGVATNTFFKPPCVSVYRCGGCCNSEGLQCMNTSTSYLSKTLFEITVPLSQGPKPVTISFANHTSCRCMSKLDVYRQVHSIIRR
notes: also called 23 kD polypeptide; 21-23 kD form (PC-3)

Columns and labels:
[1] = target: T1, KDR (VEGFR-2) expressed on porcine aortic endothelial cells (UniProt P35968 20-1356, limits assumed); test: Scatchard analysis with 125I-labelled ligand
T1 construct: whole, on cells; also called KDR/Flk-1; PAE-KDR cells
Description: (§1) To study receptor binding, PAE/VEGFR-2 and PAE/VEGFR-3 cells were seeded into 24-well tissue culture plates (Nunclon), which had been coated with 2% gelatin in PBS. […] The binding was allowed to proceed at room temperature for 90 minutes. The plates were then transferred onto ice and washed three times with ice-cold PBS containing 0.1% BSA. The cells were then lysed in 1 M NaOH, the lysates were collected, and the radioactivity was measured using a γ-counter.

[2] = target: T2, Flt4 receptor tyrosine kinase (VEGFR-3) expressed on cells (human, UniProt P35916 25-1363); test: Scatchard analysis with 125I-labelled ligand
T2 construct: whole, on cells; also called LTRFlt4l; NIH 3T3-Flt4 cells
Description: as §1

[3] = target: the molecule itself; test: homodimer formation, chemical crosslinking
[4] = target: T3, VEGFR-2EC-Ig (three Ig loops of the VEGFR-2 extracellular domain fused to an immunoglobulin heavy chain … (UniProt P35968 20-327, limits assumed)); test: pull-down of 35S-labelled protein with VEGFR-2EC-Ig
T3 construct: domain: three Ig loops of the extracellular domain; also called VEGFR-2EC domain; not shown: immunoglobulin heavy chain constant region, not specified
Description: An aliquot of the transfected cells were metabolically labelled for 6 hours with 100 microcuries/ml of the PRO-MIX™ L-[^35S] in vitro cell labelling mix (Amersham).

[5] = target: T1, KDR (VEGFR-2) expressed on porcine …; test: competition with 125I-VEGF-CΔNΔCHis on PAE/VEGFR-2 cells
Description: as §1

[6] = target: T3, VEGFR-2EC-Ig (three Ig loops of the …); test: receptor binding studies
[7] = target: T4, VEGFR-3EC-Ig (seven Ig loops of the VEGFR-3 extracellular domain fused to an immunoglobulin heavy chain … (UniProt P35916 25-775, limits assumed)); test: receptor binding studies
T4 construct: domain: seven Ig loops of the extracellular domain; also called VEGFR-3EC domain; not shown: immunoglobulin heavy chain constant region, not specified
T4 sequence (looked up): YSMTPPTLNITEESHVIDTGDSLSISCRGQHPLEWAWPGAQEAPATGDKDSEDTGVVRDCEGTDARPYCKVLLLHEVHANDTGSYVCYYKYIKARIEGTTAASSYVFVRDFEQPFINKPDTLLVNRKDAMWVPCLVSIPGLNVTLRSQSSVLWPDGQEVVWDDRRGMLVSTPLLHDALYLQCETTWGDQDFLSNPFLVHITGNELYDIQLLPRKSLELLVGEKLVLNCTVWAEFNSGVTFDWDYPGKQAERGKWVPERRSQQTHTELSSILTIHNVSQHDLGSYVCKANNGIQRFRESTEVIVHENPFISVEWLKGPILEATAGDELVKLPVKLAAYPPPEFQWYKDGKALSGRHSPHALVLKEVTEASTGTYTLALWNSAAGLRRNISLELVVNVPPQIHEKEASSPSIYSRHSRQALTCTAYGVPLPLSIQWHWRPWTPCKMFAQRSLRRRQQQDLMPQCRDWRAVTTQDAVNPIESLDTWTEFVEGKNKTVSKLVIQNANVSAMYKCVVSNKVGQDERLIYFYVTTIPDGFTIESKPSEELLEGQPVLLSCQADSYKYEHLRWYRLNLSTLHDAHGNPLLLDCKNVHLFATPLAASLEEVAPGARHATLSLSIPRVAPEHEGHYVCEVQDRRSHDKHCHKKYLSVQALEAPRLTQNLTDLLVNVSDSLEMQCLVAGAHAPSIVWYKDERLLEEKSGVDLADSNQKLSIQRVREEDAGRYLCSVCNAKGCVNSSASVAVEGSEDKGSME

chemical crosslinking = target: the molecule itself; test: chemical crosslinking
[8] = target: T5, Flt4 extracellular domain with C-terminal 6×His tag (Flt4EC), baculovirus-produced (human, UniProt P35916 25-775); test: depletion of conditioned medium on Flt4EC-Sepharose
T5 construct: extracellular domain; also called Flt4EC-Sepharose
T5 sequence: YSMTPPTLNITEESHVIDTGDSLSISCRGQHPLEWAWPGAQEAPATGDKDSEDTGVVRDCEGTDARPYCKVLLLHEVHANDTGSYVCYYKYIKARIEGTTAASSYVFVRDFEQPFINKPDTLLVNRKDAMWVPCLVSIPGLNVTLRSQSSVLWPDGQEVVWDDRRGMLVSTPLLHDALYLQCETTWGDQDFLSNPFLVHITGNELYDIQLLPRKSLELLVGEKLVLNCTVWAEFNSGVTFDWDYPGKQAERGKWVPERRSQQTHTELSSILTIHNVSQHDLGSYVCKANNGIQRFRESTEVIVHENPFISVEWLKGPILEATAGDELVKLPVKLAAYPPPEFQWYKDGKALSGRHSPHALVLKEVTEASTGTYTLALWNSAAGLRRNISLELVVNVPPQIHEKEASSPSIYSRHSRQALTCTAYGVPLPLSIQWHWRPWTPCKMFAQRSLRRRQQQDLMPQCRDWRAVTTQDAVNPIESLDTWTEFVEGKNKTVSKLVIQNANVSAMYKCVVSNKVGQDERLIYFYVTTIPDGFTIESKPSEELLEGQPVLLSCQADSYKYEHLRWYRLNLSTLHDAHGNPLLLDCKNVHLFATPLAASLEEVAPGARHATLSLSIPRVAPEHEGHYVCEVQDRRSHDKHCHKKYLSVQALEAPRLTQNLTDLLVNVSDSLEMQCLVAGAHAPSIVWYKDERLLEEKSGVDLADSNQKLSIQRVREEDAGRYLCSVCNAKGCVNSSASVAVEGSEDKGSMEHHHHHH

T3 sequence (P35968 20-327 limits assumed): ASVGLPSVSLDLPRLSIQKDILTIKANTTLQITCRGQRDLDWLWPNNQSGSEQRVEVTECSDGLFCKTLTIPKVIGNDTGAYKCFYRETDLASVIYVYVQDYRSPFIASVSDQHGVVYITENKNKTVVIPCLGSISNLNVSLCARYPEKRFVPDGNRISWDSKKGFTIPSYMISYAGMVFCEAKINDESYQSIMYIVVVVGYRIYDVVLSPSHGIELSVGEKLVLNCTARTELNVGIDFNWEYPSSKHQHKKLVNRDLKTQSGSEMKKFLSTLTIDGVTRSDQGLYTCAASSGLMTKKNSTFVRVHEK
T1 sequence (P35968 20-1356 limits assumed): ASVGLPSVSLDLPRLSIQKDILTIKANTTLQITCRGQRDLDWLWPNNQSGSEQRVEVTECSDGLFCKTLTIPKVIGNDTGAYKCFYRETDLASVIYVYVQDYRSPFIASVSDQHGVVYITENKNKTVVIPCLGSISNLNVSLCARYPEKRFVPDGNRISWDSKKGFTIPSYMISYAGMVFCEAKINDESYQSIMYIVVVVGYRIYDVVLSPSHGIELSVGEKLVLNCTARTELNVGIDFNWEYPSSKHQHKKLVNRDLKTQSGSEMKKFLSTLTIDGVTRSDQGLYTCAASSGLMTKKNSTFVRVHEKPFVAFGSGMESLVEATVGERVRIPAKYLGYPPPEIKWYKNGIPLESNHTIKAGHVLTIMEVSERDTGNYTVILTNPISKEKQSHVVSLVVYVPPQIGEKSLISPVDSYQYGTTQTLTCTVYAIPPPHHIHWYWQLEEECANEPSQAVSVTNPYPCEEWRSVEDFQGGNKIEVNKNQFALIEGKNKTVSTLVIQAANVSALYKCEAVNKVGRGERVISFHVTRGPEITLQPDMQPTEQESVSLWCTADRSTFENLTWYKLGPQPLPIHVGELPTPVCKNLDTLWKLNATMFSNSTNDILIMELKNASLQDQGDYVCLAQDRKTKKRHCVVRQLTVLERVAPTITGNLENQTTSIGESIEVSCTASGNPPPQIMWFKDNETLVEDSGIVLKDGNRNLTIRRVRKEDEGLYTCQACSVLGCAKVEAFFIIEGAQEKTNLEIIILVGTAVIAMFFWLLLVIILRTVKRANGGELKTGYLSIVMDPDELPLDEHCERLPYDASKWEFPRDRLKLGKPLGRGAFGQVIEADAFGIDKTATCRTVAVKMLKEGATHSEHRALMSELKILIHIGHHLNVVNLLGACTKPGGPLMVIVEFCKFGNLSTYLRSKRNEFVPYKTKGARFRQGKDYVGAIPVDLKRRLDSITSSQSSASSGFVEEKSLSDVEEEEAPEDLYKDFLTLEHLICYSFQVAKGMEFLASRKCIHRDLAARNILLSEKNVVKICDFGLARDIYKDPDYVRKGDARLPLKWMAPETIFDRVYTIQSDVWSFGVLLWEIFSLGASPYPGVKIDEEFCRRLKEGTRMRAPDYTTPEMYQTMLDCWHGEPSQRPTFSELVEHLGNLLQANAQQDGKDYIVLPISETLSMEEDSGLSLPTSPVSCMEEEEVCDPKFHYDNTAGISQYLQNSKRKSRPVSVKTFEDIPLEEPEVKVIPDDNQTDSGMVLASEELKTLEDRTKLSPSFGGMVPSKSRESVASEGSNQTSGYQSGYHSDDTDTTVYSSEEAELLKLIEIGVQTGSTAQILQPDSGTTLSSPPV

Row | Binder | binding result [3] | binding result [5] | binding result [6] | binding result [7] | binding result (chemical crosslinking) | also measured
1 | B1 | binds |  |  |  |  | Kd [1]: 0.41 nM; Kd [2]: 0.135 nM
2 | B2 | binds | no binding |  |  |  | binding result [4]: no binding
3 | B3 |  |  | no binding | no binding | no binding | 
4 | B4 |  |  | no binding | no binding | no binding | 
5 | B5 |  | binds |  |  |  | 
6 | B6 |  |  |  |  |  | binding result [8]: binds
